Data published in patent US20240287161A1 (NATIONAL UNIVERSITY CORPORATION TOTTORI UNIVERSITY, published 2024).

Legend:
[1] = biological target: T1, HCoV-HKU1 trimeric S protein (amino acids 13-1293) with T4 foldon, histidine tag and strep-tag (HCoV-HKU1, UniProt Q5MQD0 13-1297); assay: ELISA on coated S-trimeric antigen, anti-human IgG-HRP [Human IgG1, NT-108]
T1 sequence: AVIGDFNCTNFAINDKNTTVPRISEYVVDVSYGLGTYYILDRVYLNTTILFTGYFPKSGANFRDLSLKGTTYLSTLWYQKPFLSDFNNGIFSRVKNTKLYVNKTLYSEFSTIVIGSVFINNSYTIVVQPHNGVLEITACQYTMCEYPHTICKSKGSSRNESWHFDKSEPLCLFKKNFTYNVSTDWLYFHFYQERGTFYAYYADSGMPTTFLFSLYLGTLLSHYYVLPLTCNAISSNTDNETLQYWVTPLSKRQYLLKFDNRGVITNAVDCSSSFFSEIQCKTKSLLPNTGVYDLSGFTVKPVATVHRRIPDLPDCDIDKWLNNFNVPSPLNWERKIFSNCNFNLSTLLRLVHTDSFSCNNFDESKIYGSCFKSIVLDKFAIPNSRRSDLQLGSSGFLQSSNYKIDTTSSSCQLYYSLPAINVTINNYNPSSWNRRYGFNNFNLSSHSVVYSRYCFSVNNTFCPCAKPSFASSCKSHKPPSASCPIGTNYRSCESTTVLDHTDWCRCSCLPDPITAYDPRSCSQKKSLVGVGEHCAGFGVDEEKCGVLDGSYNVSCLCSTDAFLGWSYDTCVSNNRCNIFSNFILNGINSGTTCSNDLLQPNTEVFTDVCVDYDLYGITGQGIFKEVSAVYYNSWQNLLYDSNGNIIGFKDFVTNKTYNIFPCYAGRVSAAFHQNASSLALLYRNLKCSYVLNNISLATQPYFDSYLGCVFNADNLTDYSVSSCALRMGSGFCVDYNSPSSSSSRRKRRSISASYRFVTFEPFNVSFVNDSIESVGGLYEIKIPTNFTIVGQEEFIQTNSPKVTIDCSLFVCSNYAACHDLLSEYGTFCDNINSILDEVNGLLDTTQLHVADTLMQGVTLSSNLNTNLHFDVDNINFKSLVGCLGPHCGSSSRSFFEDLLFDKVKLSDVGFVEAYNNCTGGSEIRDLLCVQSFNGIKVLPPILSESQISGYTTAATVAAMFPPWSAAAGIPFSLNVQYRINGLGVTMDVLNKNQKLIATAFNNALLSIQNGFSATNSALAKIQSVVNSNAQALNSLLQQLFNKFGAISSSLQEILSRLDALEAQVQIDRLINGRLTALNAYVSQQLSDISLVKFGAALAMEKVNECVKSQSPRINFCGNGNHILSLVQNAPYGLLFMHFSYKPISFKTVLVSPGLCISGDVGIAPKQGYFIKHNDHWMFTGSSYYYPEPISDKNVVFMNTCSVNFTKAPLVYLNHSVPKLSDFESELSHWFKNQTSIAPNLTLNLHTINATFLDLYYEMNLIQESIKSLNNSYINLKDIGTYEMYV

[2] = biological target: T2, HCoV-OC43 trimeric S protein (amino acids 12-1299) with T4 foldon, histidine tag and strep-tag (HCoV-OC43, UniProt P36334 12-1291); assay: ELISA on coated S-trimeric antigen, anti-human IgG-HRP [Human IgG1, NT-193]
T2 chain: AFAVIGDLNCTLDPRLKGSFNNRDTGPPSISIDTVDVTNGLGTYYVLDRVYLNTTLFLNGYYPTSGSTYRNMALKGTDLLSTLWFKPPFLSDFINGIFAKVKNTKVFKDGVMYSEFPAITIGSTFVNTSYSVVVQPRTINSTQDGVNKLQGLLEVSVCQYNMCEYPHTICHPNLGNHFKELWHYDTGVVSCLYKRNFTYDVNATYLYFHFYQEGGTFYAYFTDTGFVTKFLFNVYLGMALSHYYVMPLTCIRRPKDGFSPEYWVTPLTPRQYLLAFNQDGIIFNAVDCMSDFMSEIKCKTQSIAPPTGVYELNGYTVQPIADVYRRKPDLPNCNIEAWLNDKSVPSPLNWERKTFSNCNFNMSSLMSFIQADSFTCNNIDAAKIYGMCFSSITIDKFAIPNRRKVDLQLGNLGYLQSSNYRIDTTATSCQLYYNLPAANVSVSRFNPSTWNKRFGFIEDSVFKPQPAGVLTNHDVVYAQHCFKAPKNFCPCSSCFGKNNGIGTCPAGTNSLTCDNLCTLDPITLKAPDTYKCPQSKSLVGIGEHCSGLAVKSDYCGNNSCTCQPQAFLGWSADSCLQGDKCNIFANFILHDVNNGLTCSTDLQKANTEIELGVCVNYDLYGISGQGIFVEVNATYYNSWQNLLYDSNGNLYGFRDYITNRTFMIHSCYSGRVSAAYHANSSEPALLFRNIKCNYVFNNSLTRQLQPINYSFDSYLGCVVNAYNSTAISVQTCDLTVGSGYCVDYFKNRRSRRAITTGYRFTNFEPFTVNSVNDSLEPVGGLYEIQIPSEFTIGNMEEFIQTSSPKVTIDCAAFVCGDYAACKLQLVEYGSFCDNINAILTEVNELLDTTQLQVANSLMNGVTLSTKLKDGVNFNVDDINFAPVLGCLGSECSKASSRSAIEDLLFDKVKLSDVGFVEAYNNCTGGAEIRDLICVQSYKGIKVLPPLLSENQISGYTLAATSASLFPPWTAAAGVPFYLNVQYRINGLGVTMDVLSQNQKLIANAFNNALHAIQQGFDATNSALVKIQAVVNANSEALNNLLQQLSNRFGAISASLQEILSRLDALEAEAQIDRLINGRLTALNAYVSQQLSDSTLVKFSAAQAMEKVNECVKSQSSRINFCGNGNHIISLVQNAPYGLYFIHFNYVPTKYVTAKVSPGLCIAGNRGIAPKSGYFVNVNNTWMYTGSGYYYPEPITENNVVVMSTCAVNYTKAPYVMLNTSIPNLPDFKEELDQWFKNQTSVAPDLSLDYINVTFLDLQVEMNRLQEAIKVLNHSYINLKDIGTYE

[3] = biological target: T1, HCoV-HKU1 trimeric S protein (amino …); assay: as above

B1: NT-108 (recombinant human IgG1/kappa antibody) (antibody, V domains shown)
VH: EVQLQQSGPGLVKPSQTLSLTCSISGDSVSSNSAAWNWIRQSPSRGLEWLGRTYYRSKWYNDYAGTVKSRIAINPDTSKNQFSLHLNSVTPEDTAVYFCARVISVAGYAFDIWGQGTMVTVSS
VL: EIVLTQSPGTLSLSPGERATLSCRASQSVSSTFLAWYQQKPGQAPRLLIYGASYMATGIPDRFSGSGSGTDFTLTISRLEPEDFAVYYCQQYGSSLTFGGGTKLEIK
B1: no binding (tested: 1000 ng/ml) [1].

B2: NT-193 (recombinant human IgG1/kappa antibody) (antibody, V domains shown)
VH: EVQLQQWGAGLLKPSETLSLTCAVYGGSFSGYYWSWIRQPPGKGLEWIGEINHSGSTNYNPSLKSRVTISVDTSKNQFSLKLSSVTAADTAVYYCARGWDLDYYYGMDVWGQGTTVTVSS
VL: DIRMTQSPSAMSASVGDRVTVTCRASQGIGNYLAWFQLKPGKVPKRLIYAASSLQSGVPARFSGGGSGTEFTLTISSLQPEDFATYYCLQHGFLPWTFGQGTKLEIK
B2: no binding (tested: 1000 ng/ml) [2]; no binding (tested: 1000 ng/ml) [3].
